72 sequences from the supplement of paper PMC10567573 can be followed below.

The data set is described as follows: protein stability index of a GFP-peptide fusion (GPS, HEK-293T) (PSI 1-6); higher = more stable.
Setting [1] is: treatment: DMSO, c terminus: a fixed tail appended.
The mark [2] stands for this setting: treatment: MLN4924 1 uM, 8 h, c terminus: a fixed tail appended.
Setting [3] is: treatment: DMSO, c terminus: native.
The mark [4] stands for this setting: treatment: MLN4924 1 uM, 8 h, c terminus: native.

± gives the standard deviation.
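Further: 24-mer peptide tiles fused after GFP, lentivirally expressed, FACS-sorted into six equal bins by GFP/DsRed ratio, decoded by Illumina sequencing, PSI is the read-weighted mean bin number.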

Turning to RSKYDYLMILRRVVNESTVCLMGH [TENT5C], the protein stability index reads like this: under setting [1], 3.05 ± 0.86; under setting [2], 2.52 ± 0.55.

With KSMKPYNYCSAYESFYESTSPECA [NEUROD6], the protein stability index by setting is: under setting [1], 3.15 ± 0.17; under setting [2], 3.23 ± 0.35.

For MAAEIQPKPLTRKPILLQRMEGSQ [WDFY2], the protein stability index was found to be 4.05 ± 0.27 under setting [1] and 3.8 ± 0.38 under setting [2].

The sequence QPPEESQPPQSQAQVPPAAPHHHH [PLK2] gave a protein stability index under setting [1] of 5.41 ± 0.11 and a protein stability index under setting [2] of 5.43 ± 0.18.

For the sequence LSLESEGAGEGAAASPELSALEEA [TPPP], the protein stability index by setting is: under setting [1], 5.52 ± 0.17; under setting [2], 5.58 ± 0.17.

VKYPELVLEHSLDREEEAIHHLVL [PCDHGA10] had a protein stability index under setting [1] of 2.6 ± 0.096 and a protein stability index under setting [2] of 2.63 ± 0.36.

In the case of PEGIQKVAKCLIGVNYPKPMVNHA [CRY1], the protein stability index runs as follows: under setting [1], 2.46 ± 0.18; under setting [2], 2.87 ± 0.23.

GLLNDTSAPHLENSGHTIFNDPFF [KCNA4]: the protein stability index is 4.17 ± 0.19 under setting [1] and 4.28 ± 0.28 under setting [2].

PQKASAPAADPPRYTFAPSVSLNK [PDLIM7]: the protein stability index was determined as 4.33 ± 0.19 under setting [1] and 4.32 ± 0.22 under setting [2].

Consider HTLILMFIWFVCSLVYYGLTLSAG [SLC22A15], for which the protein stability index runs as follows: under setting [1], 2.42 ± 0.79; under setting [2], 2.16 ± 0.36.

Regarding ILLKVKTEIEEELKSLDKEISEAF [BCL2L13], the protein stability index is 2.75 ± 0.36 under setting [1] and 3.19 ± 0.33 under setting [2].

Turning to PFNGDCRITKDNRRHCQACRLKRC [VDR], the protein stability index was 3.19 ± 0.3 under setting [1] and 3.4 ± 0.34 under setting [2].

In the case of ADSGNFKRCINLWKYALDMQQSNL [FEM1C], the protein stability index under setting [1] is 2.15 ± 0.37 and the protein stability index under setting [2] amounted to 2.21 ± 0.37.

For YSSSKGSLRLCDMRAAALCDKHSK [PPP2R2C], the protein stability index came out at 2.53 ± 0.8 under setting [1] and 3.11 ± 0.71 under setting [2].

In the case of TFDAITTIRGEVMFFKDRFYMRTN [MMP1], the protein stability index was found to be 2.25 ± 0.41 under setting [1] and 2.07 ± 0.19 under setting [2].

As for WTLQRRLTRLRTASGHEPGGSAVC [PLEKHN1], the protein stability index by setting is: under setting [1], 3 ± 0.23; under setting [2], 3.06 ± 0.22.

Take RADEPQWSLYPSDSQVSEEVKTRH [CHGB]: the protein stability index by setting is: under setting [1], 5.18 ± 0.068; under setting [2], 5.18 ± 0.064.

For the sequence ELLLFAVGFIMAGTPMALIVISYI [OR3A1], the protein stability index came to 2.56 ± 0.033 under setting [1] and 3.09 ± 0.28 under setting [2].

Turning to FAYLEDLHSEFDEQHGKKVPTVSR [SEC22B], the protein stability index was found to be 3.64 ± 0.24 under setting [1] and 3.73 ± 0.33 under setting [2].

As to SLPLQDELAFAEDLVLDEEGARAA [ESRRA], the protein stability index turned out to be 3.52 ± 0.68 under setting [1] and 4.31 ± 0.58 under setting [2].

Take REFSFTLKDDIYIRYQSFNNQSDL [PRIM1]: the protein stability index reads like this: under setting [1], 2.26 ± 0.084; under setting [2], 2.22 ± 0.41.

MNQTCCPQYTIRCRPLQFQPSKSH [ATE1]: the protein stability index is 2.06 ± 0.27 under setting [1] and 2.1 ± 0.25 under setting [2].

Regarding WLYYYAYKDFLWFFSKRFKSAAML [SOAT1], the protein stability index is 2.15 ± 0.34 under setting [1] and 2.29 ± 0.44 under setting [2].

Take GQRLAVCVPAHPPPCAWACPVPAH [CTBP1-DT]: the protein stability index is, setting by setting: under setting [1], 2.7 ± 0.39; under setting [2], 2.8 ± 0.1.

For the sequence GAKMTERGSVARPTQGPETPRSPE [PXN], the protein stability index under setting [1] came to 5.59 ± 0.13 and the protein stability index under setting [2] turned out to be 5.38 ± 0.26.

Sequence ESESPQSHRAAGSGVSDYDYLDLD [TRIM9] yielded a protein stability index under setting [1] of 5.5 ± 0.19 and a protein stability index under setting [2] of 5.35 ± 0.2.

On to HCWDVAGAGIIVTEAGGVLMDVTG [IMPA1], for which the protein stability index reads like this: under setting [1], 2.4 ± 0.25; under setting [2], 2.52 ± 0.51.

As for AVLTTHHHWDHARGNPELARLRPG [HAGHL], the protein stability index runs as follows: under setting [1], 3.28 ± 0.17; under setting [2], 3.4 ± 0.34.

LERQLQAEFIESGQYRANEGTSSI [TAF7L]: the protein stability index reads like this: under setting [1], 4.7 ± 0.2; under setting [2], 4.66 ± 0.12.

As to ALREVYAHAVLGQHSHVVRYFSAW [WEE1], the protein stability index is 2.36 ± 0.34 under setting [1] and 2.03 ± 0.3 under setting [2].

As to IANCKLFRLQLQQGLFRIRVHSP [GAN], the protein stability index is, setting by setting: under setting [3], 3.45 ± 0.51; under setting [4], 2.6 ± 0.38.

On to PPGNVYWPLRGKREAMLEMLLQHQ [SPAG8], for which the protein stability index is, setting by setting: under setting [1], 2.52 ± 0.055; under setting [2], 2.65 ± 0.3.

Consider GPRFGPRNDKIKHVQNQVDEVIDV [VAMP4], for which the protein stability index came out at 4.24 ± 0.49 under setting [1] and 4.63 ± 0.22 under setting [2].

Turning to CLELVSCFVLFSLTHTHTHTPNHR [ANKRD44], the protein stability index was 2.7 ± 0.081 under setting [1] and 3.55 ± 0.097 under setting [2].

FRPEMKKHSWCLKRKNPPNERTV [N4BP2L1] returned a protein stability index under setting [3] of 3.06 ± 0.2 and a protein stability index under setting [4] of 3.04 ± 0.68.

Take REDSKEAEKSGEATDGARPQALPE [CHGA]: the protein stability index runs as follows: under setting [1], 5.64 ± 0.066; under setting [2], 5.64 ± 0.17.

Regarding DANLDECIPATVRSSFANQGEICL [ALDH8A1], the protein stability index was found to be 4.08 ± 0.35 under setting [1] and 4.19 ± 0.41 under setting [2].

Take SDGRTFLSRCEFQRAKCKDPQLEI [SMOC2]: the protein stability index under setting [1] turned out to be 2.95 ± 0.42 and the protein stability index under setting [2] was 2.93 ± 0.33.

Consider PWDESGSGCLPPEPLFEAGDATLA [FOXJ1], for which the protein stability index is, setting by setting: under setting [1], 5.07 ± 0.39; under setting [2], 5.08 ± 0.23.

Regarding EPGGPGWLPESDCETVTCCLFSER [SMAD6], the protein stability index under setting [1] came to 3.96 ± 0.35 and the protein stability index under setting [2] stood at 4.16 ± 0.42.

Turning to PLFTPQSPVTATLSDEDDGFVDLL [CDC25A], the protein stability index by setting is: under setting [1], 4.65 ± 0.13; under setting [2], 4.43 ± 0.38.

The sequence DGKLRLLTKLLASKSKEEVSSLIS [FEM1C] gave a protein stability index under setting [1] of 2.33 ± 0.28 and a protein stability index under setting [2] of 1.92 ± 0.39.

As for QKQLEQTLQQFNIKLRPPGAEKPS [ARFIP2], the protein stability index is, setting by setting: under setting [1], 3.92 ± 0.098; under setting [2], 4.07 ± 0.19.

Take EDDKLVVECVMKGVTSTRVYERA [FABP4]: the protein stability index under setting [3] worked out at 3.03 ± 0.29 and the protein stability index under setting [4] came to 3.75 ± 0.42.

Sequence SDYFCAMFTSELSEKGKPYVDIQG [KLHL12] yielded a protein stability index under setting [1] of 2.53 ± 0.14 and a protein stability index under setting [2] of 2.91 ± 0.27.

EDSLATVKVVLIPVGQEIVIPFKV [IQUB]: the protein stability index under setting [1] worked out at 2.86 ± 1.3 and the protein stability index under setting [2] was 2.43 ± 0.98.

In turn, RSLNEEHSKQYRCLSFQPECSMKL [VDR] had a protein stability index under setting [1] of 3.25 ± 0.26 and a protein stability index under setting [2] of 3.41 ± 0.31.

Turning to SSPGNNNGTSIEDGQIPEIIFYT [BTBD1], the protein stability index came out at 3.14 ± 0.46 under setting [3] and 3.44 ± 0.56 under setting [4].

With RELGIRQRDEQLRALQERLGQQQR [FBF1], the protein stability index is 4.39 ± 0.14 under setting [1] and 4.42 ± 0.14 under setting [2].

Take CGRYINGHMLQHHGNSGHPLVLSY [HDAC6]: the protein stability index stood at 2.51 ± 0.29 under setting [1] and 2.65 ± 0.77 under setting [2].

Take RLVGKTPIETLIRDMLLSGSSFNW [NR2F2]: the protein stability index under setting [1] is 3.25 ± 0.84 and the protein stability index under setting [2] was 1.87 ± 0.54.

Take ENSICVGFKRDYYLIRVDGKGSIK [VPS39]: the protein stability index runs as follows: under setting [1], 2.16 ± 0.54; under setting [2], 2.35 ± 0.37.

Consider IVKKPKSMQCKVILLDGSEYTCDV [EPB41L3], for which the protein stability index runs as follows: under setting [1], 1.93 ± 0.24; under setting [2], 2.23 ± 0.69.

EELEFQYRRVNELLLSILNPTRQD [ZER1] gave a protein stability index under setting [1] of 3.01 ± 0.26 and a protein stability index under setting [2] of 3.04 ± 0.31.

On to YDGYRLRVEFPRSGRGTGRGGGGG [SRSF1], for which the protein stability index turned out to be 3.81 ± 0.26 under setting [1] and 3.99 ± 0.25 under setting [2].

Turning to YPTSDQEGDPGSKQPRKKRGRYRQ [LCOR], the protein stability index was found to be 5.3 ± 0.23 under setting [1] and 5.45 ± 0.27 under setting [2].

For the sequence SSSINSPDRASGPEGSLSQTMAGS [FAM104A], the protein stability index stood at 5 ± 0.16 under setting [1] and 5.04 ± 0.1 under setting [2].

As to IARVADGLPLAASMQEDEQSGRDL [SEC22B], the protein stability index is, setting by setting: under setting [1], 5.24 ± 0.22; under setting [2], 5.33 ± 0.15.

As for NLKQLRKRGSIPTSLTALSLASAS [PPFIA4], the protein stability index reads like this: under setting [1], 3 ± 0.15; under setting [2], 3.09 ± 0.24.

As for IIYMGSFMLMLLVLGIQVKCFHEI [CDS1], the protein stability index reads like this: under setting [1], 3.57 ± 0.85; under setting [2], 3.27 ± 0.34.

IVANTMPTHLSNGQMSTPETPQPS [HNF4A] showed a protein stability index under setting [1] of 4.43 ± 0.22 and a protein stability index under setting [2] of 4.51 ± 0.15.

Take MAETVADTRRLITKPQNLNDAYGP [SNX3]: the protein stability index runs as follows: under setting [1], 3.95 ± 0.25; under setting [2], 4.17 ± 0.15.

LSAVPEEGDATRDPGPEPEEEPGV [PSD2]: the protein stability index came out at 5.77 ± 0.25 under setting [1] and 5.48 ± 0.49 under setting [2].

LSAALASSQKQHSFTSSDKTIKSF [C8orf76]: the protein stability index is, setting by setting: under setting [1], 3.77 ± 0.35; under setting [2], 3.74 ± 0.2.

For PLSAVYRICLGKFTFPGMSLDKRQ [TPRG1], the protein stability index by setting is: under setting [1], 2.23 ± 0.46; under setting [2], 2.24 ± 0.22.

On to RPENRSFYLALYKQMSFLEKRGCP [TCF25], for which the protein stability index was determined as 2.12 ± 0.3 under setting [1] and 2.19 ± 0.34 under setting [2].

Take CKRMDLVCQRMLNQGFLKVERYHN [FBXO28]: the protein stability index under setting [1] turned out to be 2.38 ± 0.29 and the protein stability index under setting [2] is 2.1 ± 0.16.

With QILELLVLEQFLTILPQEIQSRVQ [ZNF263], the protein stability index reads like this: under setting [1], 3.06 ± 0.47; under setting [2], 3.43 ± 0.49.

Regarding HLVEETRIHVLPSLNPDGYEKAYE [CPXM2], the protein stability index by setting is: under setting [1], 4.46 ± 0.15; under setting [2], 4.34 ± 0.046.

For the sequence IDEHHFVAVALRKPDGSRHQDVPS [AASDHPPT], the protein stability index worked out at 4 ± 0.17 under setting [1] and 4.07 ± 0.19 under setting [2].

As for CGKSFTQSSGLIRHQRIHTGERPY [ZSCAN9], the protein stability index runs as follows: under setting [1], 2.14 ± 0.034; under setting [2], 2.25 ± 0.21.

The sequence TVCDDKWDLVSASVVCRELGFGSA [LOXL2] came in with a protein stability index under setting [1] of 2.54 ± 0.49 and a protein stability index under setting [2] of 2.7 ± 0.2.
